Measurements published in patent US20260274985A1 (MYTHIC THERAPEUTICS, published 2026).
Positions count from the first letter of the chain named.

B1: 166-DXd (antibody, IgG1, V domains shown)
VH: QVQLQQSGSELKKPGASVKVSCKASGYTFTNYGMNWVKQAPGQGLKWMGWINTYTGEPTYTHDFKGRFAFSLDTSVSTAYLQISSLKADDTAVYFCARGGFGSSYWYFDVWGQGSLVTVSS
VL: DIQLTQSPSSLSASVGDRVSITCKASQDVHIAVAWYQQKPGKAPKLLIYSHSYRYTGVPDRFSGSGSGTDFTLTISSLQPEDFAVYYCQQHYHTPLTFGAGTKVEIK
modifications: maleimide based GGFG-DXd conjugated to hinge cysteines, average DAR of about 4
B2: 167-DXd (antibody, IgG1, V domains shown)
VH: B1 VH with H62D, D63H
VL: B1 VL with V33H, H51A, H93I
modifications: maleimide based GGFG-DXd conjugated to hinge cysteines, average DAR of about 4
B3: 168-DXd (antibody, IgG1, V domains shown)
VH: B1 VH with H62D, F64H
VL: B1 VL
modifications: maleimide based GGFG-DXd conjugated to hinge cysteines, average DAR of about 4
B4: 165-DXd (antibody, IgG1, V domains shown)
VH: B1 VH with H62D
VL: B1 VL with H30S, H51A, H93I
modifications: maleimide based GGFG-DXd conjugated to hinge cysteines, average DAR of about 4
B5: MYT13266 (antibody, V domains shown)
VH: QVQLVQSGAEVKKPGASVKVSCKASGYTFTTAGMQWVRQAPGQGLEWMGWINTHSGVPKYAEDFKGRVTISADTSTSTAYLQLSSLKSEDTAVYYCARSGHGSSYWYFDVWGQGTLVTVSS
VL: B1 VL with L4M, S20T, H30S, I31T, H51A, Y53H, D60S, H93I, A100Q, V104L
notes: Full-length IgG from Expi293 supernatant; also called datopotamab heavy chain and light chain pairing variant
B6: MYT13267 (antibody, V domains shown)
VH: B5 VH with H101F, S104H
VL: B1 VL with L4M, S20T, H30S, I31T, H51A, Y53H, D60S, H93I, A100Q, V104L
notes: as for B5
B7: MYT13273 (antibody, V domains shown)
VH: B5 VH with R98H, H101F
VL: B1 VL with L4M, S20T, H30S, I31T, H51A, D60S, A100Q, V104L
notes: as for B5
B8: MYT13274 (antibody, V domains shown)
VH: B5 VH
VL: B1 VL with L4M, S20T, H30S, I31T, H51A, D60S, A100Q, V104L
notes: as for B5
B9: MYT13275 (antibody, V domains shown)
VH: B5 VH with H101F, S104H
VL: B1 VL with L4M, S20T, H30S, I31T, H51A, D60S, A100Q, V104L
notes: as for B5
B10: MYT13252 (antibody, V domains shown)
VH: B1 VH with H62D, D63H
VL: B1 VL with H30S, H51A, S52H
notes: Sacituzumab HC-LC pairing variant
B11: MYT13447 (antibody, V domains shown)
VH: QVQLQESGPGLVKPSETLSLTCTVSGGSISSYGVHWIRQPPGKGLEWIGVIWTSGVTDYNSALMGRVTISVDTSKNQFSLKLSSVTAADTAVYYCARDGDYDRYTHDYWGQGTLVTVSS
VL: DIVMTQSPDSLAVSLGERATINCRASKSVSTSGYSYMHWYQQKPGQPPKLLIYLASNLHSGVPDRFSGSGSGTDFTLTISSLQAEDVAVYYCQHSRELPYHFGQGTKLEIK
notes: Full-length IgG from Expi293 supernatant; also called hu7E6SVG heavy chain and light chain pairing variant
B12: MYT12392 (antibody, V domains shown)
VH: B5 VH with H101F
VL: B1 VL with L4M, S20T, H30S, I31T, S52H, D60S, H93I, A100Q, V104L
notes: datopotamab VL 51, 52 substituted
B13: MYT12393 (antibody, V domains shown)
VH: B5 VH with H101F
VL: B1 VL with L4M, S20T, H30S, I31T, D60S, Q89H, H93I, A100Q, V104L
notes: datopotamab VL 51, 89 substituted
B14: MYT12398 (antibody, V domains shown)
VH: B5 VH with H101F
VL: B1 VL with L4M, S20T, D28H, H30S, I31T, S52H, D60S, H93I, A100Q, V104L
notes: datopotamab VL 28, 51, 52 substituted
B15: MYT12404 (antibody, V domains shown)
VH: B5 VH with H101F
VL: B1 VL with L4M, S20T, H30S, I31T, S52H, D60S, Q89H, H93I, A100Q, V104L
notes: datopotamab VL 51, 52, 89 substituted
B16: MYT12431 (hu7E6SVG variant, HCV substitutions at 33, 51, 106) (antibody, V domains shown)
VH: B11 VH with G33H, I51H
VL: B11 VL with H59E, H101T
B17: MYT12433 (hu7E6SVG variant, HCV substitutions at 33, 56, 106) (antibody, V domains shown)
VH: B11 VH with G33H, V56H
VL: B11 VL with H59E, H101T
B18: MYT12434 (hu7E6SVG variant, HCV substitutions at 33, 103, 106) (antibody, V domains shown)
VH: B11 VH with G33H, R103H
VL: B11 VL with H59E, H101T
B19: MYT12468 (hu7E6SVG variant, LCV substitutions at 60, 94, 101 (Ala at 94)) (antibody, V domains shown)
VH: B11 VH with H106M
VL: B11 VL with H59E, S60H, H94A
notes: Full IgG in Expi293 supernatant
B20: MYT12473 (hu7E6SVG variant, LCV substitutions at 94, 97, 101 (Ala at 94)) (antibody, V domains shown)
VH: B11 VH with H106M
VL: B11 VL with H59E, H94A, E97H
notes: as for B19
B21: MYT13306 (antibody, V domains shown)
VH: B11 VH with I51H, H106M
VL: B11 VL with H94A, H101T
notes: as for B11
B22: MYT13307 (antibody, V domains shown)
VH: B11 VH with V56H, H106M
VL: B11 VL with H94A, H101T
notes: as for B11
B23: MYT13311 (antibody, V domains shown)
VH: B11 VH with I51H, H106M
VL: B11 VL
notes: as for B11
B24: MYT13312 (antibody, V domains shown)
VH: B11 VH with V56H, H106M
VL: B11 VL
notes: as for B11
B25: MYT13443 (antibody, V domains shown)
VH: B11 VH with I51H, H106M
VL: B11 VL
notes: as for B11

Each binder was assayed against T1, TROP2 on TROP2-positive NCI-H1975 cells (human, UniProt P09758 27-323) (assay: cell-based or functional assay).
T1 sequence: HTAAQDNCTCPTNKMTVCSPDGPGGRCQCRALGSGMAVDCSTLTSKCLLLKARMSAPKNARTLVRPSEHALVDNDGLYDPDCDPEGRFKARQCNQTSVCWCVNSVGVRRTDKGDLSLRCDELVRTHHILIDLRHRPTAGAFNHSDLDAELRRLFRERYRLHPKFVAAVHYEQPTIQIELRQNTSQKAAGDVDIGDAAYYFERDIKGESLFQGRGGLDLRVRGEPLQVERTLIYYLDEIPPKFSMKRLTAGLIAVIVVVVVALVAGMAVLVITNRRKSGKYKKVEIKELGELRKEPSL
In the case of B1, the “% efficiency @ 100 nM ADC (cytotoxicity in NCI-H1975 cells)” value (“% efficiency @ 100 nM ADC” below) is reported as 9.57%.
In the case of B2, the “% efficiency @ 100 nM ADC” value is reported as 4.86%.
For B3, the “% efficiency @ 100 nM ADC” value was 7.32%.
B4 was tested, and the “% efficiency @ 100 nM ADC” value was 1.47%.

These binders were tested against T2, Human TROP2 Protein, His Tag (Acro Biosystems) (human, UniProt P09758 27-274) (assay: Octet BLI: IgG supernatant on anti-human Fc sensor, 50 nM TROP2-His at pH 7.4, dissociation at pH 7.4 or 5.4; Octet Binding Result 1=pH dependent).
T2 construct: not shown: His tag
T2 sequence (looked up): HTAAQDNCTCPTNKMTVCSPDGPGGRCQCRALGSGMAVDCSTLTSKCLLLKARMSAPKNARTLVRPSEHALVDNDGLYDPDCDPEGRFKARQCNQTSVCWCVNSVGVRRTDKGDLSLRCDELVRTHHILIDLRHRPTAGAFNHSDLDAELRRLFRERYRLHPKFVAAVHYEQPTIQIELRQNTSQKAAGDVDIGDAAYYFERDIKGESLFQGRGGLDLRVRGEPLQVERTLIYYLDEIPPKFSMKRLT
Experimental: (§1) After allowing for four days of protein expression, cell culture supernatants were collected, quantified by SDS-PAGE analysis (DNS), and the pH dependence of the variant was evaluated using biolayer interferometry (BLI) on an Octet RED 96e instrument. Briefly, cell culture supernatants were diluted based on qualitative expression level of the variant determined by visual examination of SDS-PAGE gels, 5 μL of cell culture supernatant was diluted into 195 μL of 1×PBST, pH 7.4 for high expressors, 25 μL of cell culture supernatant was diluted into 175 μL of 1×PBST, pH 7.4 for medium expressors and 100 μL of cell culture supernatant was diluted into 100 μL of 1×PBST, pH 7.4 for low expressors for loading onto the sensor tips. The resulting diluted supernatants were then captured on an anti-human Fc sensor (Forte Bio). A baseline was established using 1×PBST (50 mM Potassium Phosphate Buffer+150 mM NaCl+0.05% Tween 20) pH 7.4, and the sensor was associated with 50 nM of TROP2 (Human TROP2 Protein, His Tag, Acro Biosystems) in 1×PBST pH 7.4 for 120 sec to generate an association curve. In the dissociation phase, the antibody-antigen complex on the sensor was exposed to 1×PBST pH 7.4 or pH 5.4, for 300 sec. Association and dissociation phase curves were examined for the starting ABPC antibody (with no substitutions) and each corresponding antibody variant at pH 5.4 and pH 7.4 to inform on two criteria: a) enhanced dissociation (i.e., higher koff values) at pH 5.4 due to histidine or alanine substitution compared to the starting ABPC, (with no substitutions), and b) reduced dissociation at pH 7.4 (i.e., lower koff values) compared to pH 5.4 in the antibody variant itself and with the starting ABPC (with no substitutions). […] It was also noted that while some mutations obliterated TROP2 binding, others were tolerated with little or n change in TROP2 binding kinetics.
B5: binds.
B6: binds.
B7: binds.
B8: binds.
B9: binds.

The binders below were run against T3, Human TROP2 Protein, His Tag (Acro Biosystems) (human, UniProt P09758 27-274) (assay: BLI (Octet) [2/2]).
T3 construct: also called TACSTD2; not shown: His tag
T3 sequence (looked up): T2 sequence (looked up)
B10: binds.

What follows are binders tested against T2, Human TROP2 Protein, His Tag (Acro …) (assay: BLI (Octet) [2/2]).
B11: no binding (tested: 50 nM).

Each binder was assayed against T4, Human TROP2 Protein, His Tag (Acro Biosystems) (human, UniProt P09758 27-274) (assay: BLI (Octet)).
T4 construct: not shown: His tag
T4 sequence (looked up): T2 sequence (looked up)
B12: binds.
B13: binds.
B14: binds.
B15: binds.

The binders below were run against T5, Human TROP2 Protein, His Tag (Acro Biosystems) (human, UniProt P09758 27-274) (assay: BLI (Octet)).
T5 construct: Bought protein; also called TACSTD2; not shown: His tag
T5 sequence: T2 sequence (looked up)
B16: no binding (tested: 50 nM).
B17: no binding (tested: 50 nM).
B18: no binding (tested: 50 nM).
B19: no binding (tested: 50 nM).
B20: no binding (tested: 50 nM).

The binders below were run against T2, Human TROP2 Protein, His Tag (Acro …) (assay: Octet BLI: IgG supernatant on anti-human Fc sensor, 50 nM TROP2-His at pH 7.4; Octet Binding Result 3=No binding).
Experimental: as §1
B21: no binding (tested: 50 nM).
B22: no binding (tested: 50 nM).
B23: no binding (tested: 50 nM).
B24: no binding (tested: 50 nM).
B25: no binding (tested: 50 nM).
